Measured values reported in publication doi:10.1101/831339.

Legend:
Experiment in all cases: MST
DLA2 ΔE3B = DLA2 ΔE3B (Chlamydomonas reinhardtii, UniProt A0A2K3DW88 32-184+=VD+224-494, internal_change)
DLA2 WT (MST) = DLA2 WT (MST) (Chlamydomonas reinhardtii, UniProt A0A2K3DW88 32-494)
DLA2 ΔCat 462 = DLA2 ΔCat 462 (Chlamydomonas reinhardtii, UniProt A0A2K3DW88 32-461)
PratA = molecular target: T1, PratA (Synechocystis sp. PCC 6803, UniProt P73091 39-383)
T1 sequence: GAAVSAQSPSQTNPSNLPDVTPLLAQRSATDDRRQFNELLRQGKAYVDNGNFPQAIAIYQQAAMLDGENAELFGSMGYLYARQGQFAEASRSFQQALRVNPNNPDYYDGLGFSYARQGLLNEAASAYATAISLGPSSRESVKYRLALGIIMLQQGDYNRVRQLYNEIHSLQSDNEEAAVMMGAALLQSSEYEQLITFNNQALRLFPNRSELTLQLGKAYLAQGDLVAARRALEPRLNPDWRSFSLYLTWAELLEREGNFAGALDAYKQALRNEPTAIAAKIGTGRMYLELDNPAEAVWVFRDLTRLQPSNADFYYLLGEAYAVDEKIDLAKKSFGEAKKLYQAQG

DLA2 ΔCat = DLA2 ΔCat (Chlamydomonas reinhardtii, UniProt A0A2K3DW88 32-269)
DLA2 ΔCat 450 = DLA2 ΔCat 450 (Chlamydomonas reinhardtii, UniProt A0A2K3DW88 32-449)
DLA2 ΔLip = DLA2 ΔLip (Chlamydomonas reinhardtii, UniProt A0A2K3DW88 116-494)
DLA2 ΔCat 394 = DLA2 ΔCat 394 (Chlamydomonas reinhardtii, UniProt A0A2K3DW88 32-393)
DLA2 ΔCat 315 = DLA2 ΔCat 315 (Chlamydomonas reinhardtii, UniProt A0A2K3DW88 32-314)

Row | Binder | Kd (DLA2 ΔE3B) [nM] | Kd (DLA2 WT (MST)) [nM] | Kd (DLA2 ΔCat 462) [nM] | binding result (PratA) | Kd (DLA2 ΔCat) [nM] | Kd (DLA2 ΔCat 450) [nM] | Kd (DLA2 ΔLip) [nM] | Kd (DLA2 ΔCat 394) [nM] | Kd (DLA2 ΔCat 315) [nM]
1 | UUUACGGAGAAAUUAAAACUUUCCCCCCCCCCCCAUAUGACCAUGGAUC (ssRNA) [psbA 5'-UTR C-stretch probe] | 244 ± 43 | 248 ± 54 | 625 ± 75 |  |  |  |  |  | 
2 | UUUACGGAGAAAUUAAAACUUUAAAAAAAUUAACAUAUGACCAUGGAUC (ssRNA) [psbA 5'-UTR probe native] | 241 ± 21 | 106 ± 24 | 427 ± 55 | no binding | 911 ± 60 | 466 ± 65 | 107 ± 20 | 558 ± 77 | 607 ± 82
